# Measurements published in paper PMC3476979.
# Target: endogenous phospho-IKKα/β, O15111;O14920
# Assay: co-immunoprecipitation (IP with anti-Tax mab, blot with anti-phospho-IKK), band quantified as Phospho-IKK/Tax
# Settings: 293 T cells, parent: 100
row,Substance,percent of parent
1,"wild-type Tax protein of Human T-lymphotropic virus type 1 (HTLV-1), C-terminal 6His tag (Tax-His) (from UniProt P03409) K1-10R",3 % WT
2,"wild-type Tax protein of Human T-lymphotropic virus type 1 (HTLV-1), C-terminal 6His tag (Tax-His) (from UniProt P03409) K4-8R",2 % WT
3,"wild-type Tax protein of Human T-lymphotropic virus type 1 (HTLV-1), C-terminal 6His tag (Tax-His) (from UniProt P03409) K6-8R",10 % WT
4,"wild-type Tax protein of Human T-lymphotropic virus type 1 (HTLV-1), C-terminal 6His tag (Tax-His) (from UniProt P03409) K7-8R",27 % WT
5,"wild-type Tax protein of Human T-lymphotropic virus type 1 (HTLV-1), C-terminal 6His tag (Tax-His) (from UniProt P03409) K7R",95 % WT
6,"wild-type Tax protein of Human T-lymphotropic virus type 1 (HTLV-1), C-terminal 6His tag (Tax-His) (from UniProt P03409) M22",< 1 % WT
7,"wild-type Tax protein of Human T-lymphotropic virus type 1 (HTLV-1), C-terminal 6His tag (Tax-His) (from UniProt P03409) P79A; Q81A",84 % WT
